From the RNAGym collection of RNA variant scans (doi:10.7554/elife.80360) come the findings set out here.

B1: HDV Ribozyme (parent)
chain: GGCCGGCAUGGUCCCAGCCUCCUCGCUGGCGCCGGCUGGGCAACAUUCCGAGGGGACCGUCCCCUCGGUAAUGGCGAAUGGGACCCA

In this series the parent is B1. In words: self-cleavage, relative activity (ratio to wild type); higher = more cleavage; co-transcriptional.
In the case of GGCCGGCAUGGUCCCGGCCUCCUCGCUGGCGCCGGCAGGGCAACAUUCCGAGGGGACCGUCCCCUCGGUAAUGGCGAAUGGGACCCA [A16G U37A], the self-cleavage worked out at 0.115.
As for GGCCGGCAUGGUCCCGGCCUCCUCGCUGGCGCCGGCGGGGCAACAUUCCGAGGGGACCGUCCCCUCGGUAAUGGCGAAUGGGACCCA [A16G U37G], the figure is 0.119; as for GGCCGGCAUGGUCCCGGCCUCCUCGCUGGCGCCGGCCGGGCAACAUUCCGAGGGGACCGUCCCCUCGGUAAUGGCGAAUGGGACCCA [A16G U37C], 0.997.
As for GGCCGGCAUGGUCCCGGCCUCCUCGCUGGCGCCGGCUGGGCAACAUUCCGAGGGGACCGUCCCCCCGGUAAUGGCGAAUGGGACCCA [A16G U65C], the figure is 1.26; as for GGCCGGCAUGGUCCCGGCCUCCUCGCUGGCGCCGGCUGGGCAACAUUCCGAGGGGACCGUCCCCUCGAUAAUGGCGAAUGGGACCCA [A16G G68A], 0.928; as for GGCCGGCAUGGUCCCGGCCUCCUCGCUGGCGCCGGCUGGGCAACAUUCCGAGGGGACCGUCCCCUCGUUAAUGGCGAAUGGGACCCA [A16G G68U], 1.01.
For GGCCGGCAUGGUCCCGGCCUCCUCGCUGGCGCCGGCUGGGCAACAUUCCGAGGGGACCGUCCCCUCGCUAAUGGCGAAUGGGACCCA [A16G G68C] the value was 1.06.
As to GGCCGGCAUGGUCCCGGCCUCCUCGCUGGCGCCGGCUGGGCAACAUUCCGAGGGGACCGUCCCCUCGGUAAUGGCGAAUGGUACCCA [A16G G82U], the self-cleavage turned out to be 0.237.
As for GGCCGGCAUGGUCCCGGCCUCCUCGCUGGCGCCGGCUGGGCAACAUUCCGAGGGGACCGUCCCCUCGGUAAUGGCGAAAGGGACCCA [A16G U79A], the figure is 0.997; as for GGCCGGCAUGGUCCCGGCCUCCUCGCUGGCGCCGGCUGGGCAACAUUCCGAGGGGACCGUCCCCUCGGUAAUGGCGAACGGGACCCA [A16G U79C], 1.08.
Regarding GGCCGGCAUGGUCCCGGCCUCCUCGCUGGCGCCGGCUGGGCAACAUUCCGAGGGGACCGUCCCCUCGGUAAUGGCGAAGGGGACCCA [A16G U79G], the self-cleavage stood at 0.598.
For GGCCGGCAUGGUCCCGGCCUCCUCGCUGGCGCCGGCUGGGCAACAUUCCGAGGGGACCGUCCCCUCGGUAAUGGCAAAUGGGACCCA [A16G G76A] the value was 1.07.
For GGCCGGCAUGGUCCCGGCCUCCUCGCUGGCGCCGGCUGGGCAACAUUCCGAGGGGACCGUCCCCUCCGUAAUGGCGAAUGGGACCCA [A16G G67C] the value was 0.849.
As for GGCCGGCAUGGUCCCGGCCUCCUCGCGGGCGCCGGCUGGGCAACAUUCCGAGGGGACCGUCCCCUCGGUAAUGGCGAAUGGGACCCA [A16G U27G], the figure is 0.594; as for GGCCGGCAUGGUCCCGGCCUCCUCGCCGGCGCCGGCUGGGCAACAUUCCGAGGGGACCGUCCCCUCGGUAAUGGCGAAUGGGACCCA [A16G U27C], 0.675; as for GGCCGGCAUGGUCCCGGCCUCCUCGCUGGCGCCGGCUGGGCAACAUUCCGAGGGGACCGUCCCCUCGGUAAUGGCGAAUCGGACCCA [A16G G80C], 0.249.
Take GGCCGGCAUGGUCCCGGCCUCCUCGCUGGCGCCGGCUGGGCAACAUUCCGAGGGGACCGUCCCCUCGGUAAUGGCGAAUAGGACCCA [A16G G80A]: the self-cleavage is 0.243.
As for GGCCGGCAUGGUCCCGGCCGCCUCGCUGGCGCCGGCUGGGCAACAUUCCGAGGGGACCGUCCCCUCGGUAAUGGCGAAUGGGACCCA [A16G U20G], the figure is 0.145; as for GGCCGGCAUGGUCCCGGCCACCUCGCUGGCGCCGGCUGGGCAACAUUCCGAGGGGACCGUCCCCUCGGUAAUGGCGAAUGGGACCCA [A16G U20A], 0.138; as for GGCCGGCAUGGUCCCGGCCUCCUCGCUGGCGCCGGCUGGGCAACAUUCCGAGGGGACCGUCCCCUCGGUAAUGUCGAAUGGGACCCA [A16G G74U], 0.494.
For GGCCGGCAUGGUCCCGGCCUCCUCGCUGGCGCCGGCUGGGCAACAUUCCGAGGGGACCGUCCCCUCGGAAAUGGCGAAUGGGACCCA [A16G U69A] the value was 0.985.
As for GGCCGGCAUGGUCCCGGCCUCCUCGCUGGCGCCGGCUGGGCAACAUUCCGAGGGGACCGUCCCCUCGGGAAUGGCGAAUGGGACCCA [A16G U69G], the figure is 0.962; as for GGCCGGCAUGGUCCCGGCCUCCUCGCUGGCGCCGGCUGGGCAACAUUCCGAGGGGACCGGCCCCUCGGUAAUGGCGAAUGGGACCCA [A16G U60G], 0.554.
With GGCCGGCAUGGUCCCGGCCUCCUCGCUGGCGCCGGCUGGGCAACAUUCCGAGGGGACCGACCCCUCGGUAAUGGCGAAUGGGACCCA [A16G U60A], the self-cleavage was determined as 1.25.
Take GGCCGGCAUGGUCCCGGCCUCCUCGCUGGCGCCGGCUGGGCAACAUUCCGAGGGGACCGUCCCCUCGGUAAAGGCGAAUGGGACCCA [A16G U72A]: the self-cleavage was determined as 0.499.
For GGCCGGCAUGGUCCCGGCCUCCUCGCUGGCGCCGGCUGGGCAACAUUCCGAGGGGACCGUCCCCUCGGUAAGGGCGAAUGGGACCCA [A16G U72G] the value was 0.332; for GGCCGGCAUGGUCCCGGCCUCCUCGCUGGCGCCGGCUGGGCAACAGUCCGAGGGGACCGUCCCCUCGGUAAUGGCGAAUGGGACCCA [A16G U46G], 0.554; for GGCCGGCAUGGUCCCUGCCUCCUCGCUGGCGCCGGCUGGGCAACAUUCCGAGGGGACCGUCCCCUCGGUAAUGGCGAAUGGGACCCA [A16U], 0.984.
As for GGCCGGCAUGGUCCCGGCCUCCACGCUGGCGCCGGCUGGGCAACAUUCCGAGGGGACCGUCCCCUCGGUAAUGGCGAAUGGGACCCA [A16G U23A], the figure is 1.11; as for GGCCGGCAUGGUCCCGGCCUCCGCGCUGGCGCCGGCUGGGCAACAUUCCGAGGGGACCGUCCCCUCGGUAAUGGCGAAUGGGACCCA [A16G U23G], 1.16.
GGCCGGCAUGGUCCCGGCCUCCCCGCUGGCGCCGGCUGGGCAACAUUCCGAGGGGACCGUCCCCUCGGUAAUGGCGAAUGGGACCCA [A16G U23C]: the self-cleavage was found to be 1.14.
As for GGCCGGCAUGGUCCCGGCCUCCUCGCUGGCGCCGGCUGGGCAACAUGCCGAGGGGACCGUCCCCUCGGUAAUGGCGAAUGGGACCCA [A16G U47G], the figure is 1.14.
